Results published in PMC11804907.

Key:
Test in all cases: synthetic bead recruitment assay in embryos (fluorescence intensity at ALFA-tag-Nanobody-coupled beads)
AurA-GFP = AurA-GFP (UniProt Q27393); settings: beads injected into embryos expressing mCherry-TACC and AurA-GFP with mRNA encoding ALFA-tagged Spd-2; beads-only background est. 0.5; parent: est. 2.1; read off a plot
Polo-GFP = Polo-GFP (UniProt P52304); settings: beads injected into embryos expressing RFP-Cnn and Polo-GFP with mRNA encoding ALFA-tagged Spd-2; beads-only background est. 1.0; parent: est. 2.0; read off a plot
RFP-Cnn = RFP-Cnn (UniProt P54623); settings: beads injected into embryos expressing RFP-Cnn and Polo-GFP with mRNA encoding ALFA-tagged Spd-2; beads-only background est. 0.75; parent: est. 2.4; read off a plot
mCherry-TACC = mCherry-TACC (UniProt Q9VN51); settings: beads injected into embryos expressing mCherry-TACC and AurA-GFP with mRNA encoding ALFA-tagged Spd-2; beads-only background est. 0.65; parent: est. 2.0; read off a plot
UniProt Q9VN51, sequence (Q9VN51 entry or part of it): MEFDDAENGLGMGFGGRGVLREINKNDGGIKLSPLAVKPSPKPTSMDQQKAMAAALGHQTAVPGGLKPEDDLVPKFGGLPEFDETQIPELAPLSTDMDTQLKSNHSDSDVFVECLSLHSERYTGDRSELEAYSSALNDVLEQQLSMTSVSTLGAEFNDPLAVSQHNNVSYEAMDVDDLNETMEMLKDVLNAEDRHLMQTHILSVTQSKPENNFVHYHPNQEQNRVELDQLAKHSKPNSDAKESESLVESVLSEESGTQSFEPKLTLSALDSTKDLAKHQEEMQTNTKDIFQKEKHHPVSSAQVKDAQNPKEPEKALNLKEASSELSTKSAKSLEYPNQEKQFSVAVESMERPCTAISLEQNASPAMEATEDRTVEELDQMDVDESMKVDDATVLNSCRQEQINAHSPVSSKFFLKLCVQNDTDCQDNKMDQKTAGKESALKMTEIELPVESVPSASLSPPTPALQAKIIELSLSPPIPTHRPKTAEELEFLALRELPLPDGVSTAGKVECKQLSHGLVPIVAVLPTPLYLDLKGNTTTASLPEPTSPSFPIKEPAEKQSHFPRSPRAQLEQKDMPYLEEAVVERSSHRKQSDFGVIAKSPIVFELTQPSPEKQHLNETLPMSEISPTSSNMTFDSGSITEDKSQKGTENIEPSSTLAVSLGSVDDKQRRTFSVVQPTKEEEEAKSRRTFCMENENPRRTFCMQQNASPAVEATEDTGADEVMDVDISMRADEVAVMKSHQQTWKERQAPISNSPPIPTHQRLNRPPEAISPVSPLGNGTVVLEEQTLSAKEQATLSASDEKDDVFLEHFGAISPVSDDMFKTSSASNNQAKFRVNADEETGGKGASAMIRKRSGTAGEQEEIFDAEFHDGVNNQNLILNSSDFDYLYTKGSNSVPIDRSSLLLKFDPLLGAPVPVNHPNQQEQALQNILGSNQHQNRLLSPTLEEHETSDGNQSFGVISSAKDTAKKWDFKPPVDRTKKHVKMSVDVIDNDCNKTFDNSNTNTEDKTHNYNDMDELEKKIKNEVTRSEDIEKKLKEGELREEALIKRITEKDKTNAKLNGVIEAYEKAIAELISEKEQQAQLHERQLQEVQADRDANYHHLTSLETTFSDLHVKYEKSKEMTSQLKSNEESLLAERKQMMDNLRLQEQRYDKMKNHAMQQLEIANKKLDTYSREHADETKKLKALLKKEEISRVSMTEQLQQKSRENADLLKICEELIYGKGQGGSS

UniProt P52304, sequence (P52304 whole entry): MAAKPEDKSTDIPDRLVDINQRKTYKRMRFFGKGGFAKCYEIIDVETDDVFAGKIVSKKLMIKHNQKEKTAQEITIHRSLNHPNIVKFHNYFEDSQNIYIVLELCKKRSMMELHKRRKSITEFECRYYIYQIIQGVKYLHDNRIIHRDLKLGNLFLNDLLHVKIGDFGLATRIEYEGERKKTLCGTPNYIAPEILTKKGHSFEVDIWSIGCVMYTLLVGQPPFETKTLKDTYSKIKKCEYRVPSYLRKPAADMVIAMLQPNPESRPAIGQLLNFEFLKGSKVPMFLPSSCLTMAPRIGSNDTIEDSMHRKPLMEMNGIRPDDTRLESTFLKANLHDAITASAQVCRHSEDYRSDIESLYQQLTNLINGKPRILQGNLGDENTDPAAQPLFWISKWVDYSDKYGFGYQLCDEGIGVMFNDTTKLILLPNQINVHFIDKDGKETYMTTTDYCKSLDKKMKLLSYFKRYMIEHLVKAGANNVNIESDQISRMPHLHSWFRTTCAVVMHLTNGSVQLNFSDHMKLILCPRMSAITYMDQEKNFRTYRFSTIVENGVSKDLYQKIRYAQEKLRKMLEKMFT
UniProt P54623, sequence (P54623 whole entry): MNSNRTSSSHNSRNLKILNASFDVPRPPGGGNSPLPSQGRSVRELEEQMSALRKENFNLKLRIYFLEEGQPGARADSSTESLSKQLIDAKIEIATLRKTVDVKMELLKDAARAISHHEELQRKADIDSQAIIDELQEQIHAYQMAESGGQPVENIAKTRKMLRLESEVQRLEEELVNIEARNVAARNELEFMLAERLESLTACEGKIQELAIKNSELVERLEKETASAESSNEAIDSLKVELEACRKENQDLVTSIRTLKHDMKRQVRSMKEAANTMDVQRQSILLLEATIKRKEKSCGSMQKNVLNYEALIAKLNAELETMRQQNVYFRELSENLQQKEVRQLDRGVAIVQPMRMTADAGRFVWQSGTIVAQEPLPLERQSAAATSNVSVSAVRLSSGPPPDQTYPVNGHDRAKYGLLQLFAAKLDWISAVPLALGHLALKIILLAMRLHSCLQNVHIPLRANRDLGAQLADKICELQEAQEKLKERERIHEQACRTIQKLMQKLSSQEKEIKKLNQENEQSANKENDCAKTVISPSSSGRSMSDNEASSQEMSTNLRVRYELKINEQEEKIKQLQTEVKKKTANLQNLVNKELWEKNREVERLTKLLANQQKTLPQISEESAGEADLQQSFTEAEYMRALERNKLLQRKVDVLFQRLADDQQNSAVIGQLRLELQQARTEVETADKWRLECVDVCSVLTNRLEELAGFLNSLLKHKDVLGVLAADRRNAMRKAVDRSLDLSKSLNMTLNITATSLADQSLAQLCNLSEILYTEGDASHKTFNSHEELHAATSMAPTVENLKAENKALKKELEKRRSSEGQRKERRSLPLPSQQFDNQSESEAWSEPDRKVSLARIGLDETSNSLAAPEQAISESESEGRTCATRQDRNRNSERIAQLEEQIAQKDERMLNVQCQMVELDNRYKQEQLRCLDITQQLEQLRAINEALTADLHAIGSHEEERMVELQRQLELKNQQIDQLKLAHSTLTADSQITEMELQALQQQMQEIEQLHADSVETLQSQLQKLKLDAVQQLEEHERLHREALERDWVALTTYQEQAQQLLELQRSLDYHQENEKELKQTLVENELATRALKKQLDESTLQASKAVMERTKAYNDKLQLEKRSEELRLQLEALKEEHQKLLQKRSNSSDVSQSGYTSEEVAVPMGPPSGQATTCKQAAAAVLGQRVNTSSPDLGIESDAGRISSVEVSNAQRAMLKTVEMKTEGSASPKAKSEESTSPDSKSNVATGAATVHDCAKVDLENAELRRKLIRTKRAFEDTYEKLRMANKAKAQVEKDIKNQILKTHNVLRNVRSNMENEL
UniProt Q27393, sequence (Q27393 entry or part of it): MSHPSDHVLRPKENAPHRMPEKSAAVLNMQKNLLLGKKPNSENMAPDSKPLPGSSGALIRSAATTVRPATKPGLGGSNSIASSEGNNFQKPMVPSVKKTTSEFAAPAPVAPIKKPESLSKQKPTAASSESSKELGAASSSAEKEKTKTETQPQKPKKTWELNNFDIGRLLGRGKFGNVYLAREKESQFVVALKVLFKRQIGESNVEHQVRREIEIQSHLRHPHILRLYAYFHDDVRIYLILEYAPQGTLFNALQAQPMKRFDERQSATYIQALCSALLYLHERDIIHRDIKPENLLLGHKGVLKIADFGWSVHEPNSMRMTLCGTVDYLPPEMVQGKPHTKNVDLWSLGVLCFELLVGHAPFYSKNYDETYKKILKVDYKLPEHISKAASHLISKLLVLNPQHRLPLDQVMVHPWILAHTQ

response (AurA-GFP): 2.3 A.U.
response (Polo-GFP): 0.95 A.U.
response (RFP-Cnn): 0.85 A.U.
response (mCherry-TACC): 2.3 A.U.
Substance: WT Spd-2-ALFA (from UniProt Q9VV79) ∆Polo (all 34 S-S/T motifs mutated to T-S/T; individual positions not printed)
